Marks after values point to notes of the source that are not given here.
How the values were obtained:
[1] = system: Wistar Furth recipients of Lewis lungs; assay: Allogenic rat lung transplant model, Lewis to Wistar Furth (Example 11); format: in vivo; details: rats, 0.66 mg/kg/day IV for 7 days
Protocol: Lewis donor lungs stored for a minimal cold ischemia time of 1 hr were engrafted into allogenic Wistar Furth recipients and treated for 7 days in the following manner:
1. Saline: Received Saline 250 μl/day
2. Apyrase: Received Apyrase agent, 0.66 mg/kg/day IV
3. CyA (standard): Received Cyclosporine A 25 mg/kg/day, IP (standard dose used in previous studies)
4. CyA (low): Received Cyclosporine A 5.0 mg/kg/day, IP (sub optimal dose)
5. CyA (low)+apyrase agent: Received Cyclosporine A 5.0 mg/kg/day, IP and Received apyrase agent, 0.66 mg/kg/day IV
On post-operative day 7 recipients were evaluated for lung graft function by assessing PaO2 (FIG. 10) and then sacrificed and scored blindly for vascular rejection (FIG. 11) using the ISHLT scoring system by a pathologist who routinely evaluates lung allograft rejection. The ISHLT scoring criteria is a scale from where a score of A0 there is no evidence of vascular rejection as in completely syngeneic recipients (e.g., Lewis to Lewis lung transplantation) to A4 as is almost always observed in Lewis to Wistar Furth Recipients. Statistical differences between treatment groups (n=10) were determined by the student t test where significance differences were assessed as p<0.05. Control group for the alloimmune response was the Lewis to Lewis lung transplant combination.

[2] = system: rabbits; details: rabbit, in vivo
Protocol: Rabbits were anesthetized with intramuscular ketamine/xylazine followed by inhaled isoflurane to maintain a stable level of surgical anesthesia for 5 h. Arterial blood pressure was monitored continuously and values for pressure and heart rate recorded at intervals after administration of apyrase agent and/or other antiplatelet agents. Venous blood samples were collected at baseline (before agents were given) for analysis of CBC and chemistry and samples were obtained serially for assay of prothrombin time (PT) and activated partial prothromboplastin time (aPTT).

[3] = system: rats, thromboembolic stroke (MCA occlusion); assay: Rat model of thromboembolic stroke (MCA occlusion by preformed clot), apyrase agent plus aspirin (Example 2); format: in vivo; details: for Neurological deficits, median (interquartile range 25th to 75th), modified Bederson score: n = 10
Protocol: In this study, four experimental groups were included (n=10):
(1) control, saline injected gastrically;
(2) aspirin, 1.25 mg/kg (equivalent to 100 mg/day dose in human) injected gastrically once a day, starting 3 days prior to middle cerebral artery (MCA) occlusion and also MCA occlusion until the end of each experiment;
(3) apyrase, dose at 0.75 mg/kg injected IV at 2 h after MCA occlusion;
(4) combination group, aspirin and apyrase agent.
In this clinically relevant embolic model, ischemic brain injury was induced by embolizing preformed clots into the middle cerebral artery (MCA). Ten microliters of blood were withdrawn into a catheter and retained for 15 min to allow formation of a clot. Once the clot was formed, the catheter was advanced 17 mm in the ICA until its tip was 1-2 mm away from the origin of the MCA. The preformed clot in the catheter was then injected, and the catheter was removed. […]
Infarct was measured in the brain section stained with 2,3,5-triphenyltetrazolium chloride (TTC) solution. The infarct volume was expressed as a percentage of the total volume from the ipsilateral hemisphere.
Brain swelling (edema) was determined using a formula: edema=(the volume of the right hemisphere—the volume of the left hemisphere)/the volume of the left hemisphere.
Neurological deficits were determined using a modified Bederson's scoring system as following: 0: no observable deficit; 1: forelimb flexion; 2: forelimb flexion plus decreased resistance to lateral push; 3: unidirectional circling; 4: unidirectional circling plus decreased level of consciousness.
Hemorrhagic transformation was quantified by detection of extracellular hemoglobin content in brain homogenates using Drabkin's reagents.

[4] = system: rats, MCAO suture model with hyperglycemia; assay: Hyperglycemic hemorrhagic transformation in rat focal ischemia (MCAO suture model) (Example 3); format: in vivo
Protocol: Focal ischemia was produced using the MCAO (Middle Cerebral Artery Occlusion) suture model in rats. Removal of the suture at 3.5 h after MCAO signaled the beginning of the reperfusion period. Ischemia-reperfusion causes blood extravasation into infracted brain tissues, showing multiple dots, small petechiae and more confluent petechial hemorrhage.
The animals were divided into three groups: […]
Rats were sacrificed at 8 h after MCAO and brains were frozen and cut into 20 μm frozen sections with intervals at 1 mm. The sections were stained with hematoxylin-eosin (HE) or cresyl violet. The H-E staining was used for measurements of hemorrhage rate and hemorrhage volume. The cresyl violet staining was used for quantifying infarct volume and brain swelling. An MCID™ digital image analysis system (Imaging Research, Inc, St. Catherines, Ontario, Canada) was used for quantifying hemorrhage and infarct volume.

[5] = system: dogs, coronary thrombotic occlusion; assay: Canine coronary thrombosis and fibrinolysis model, adjunctive treatment with rtPA (Example 7); format: in vivo, dog; details: for decrease of infarct area compared to clopidogrel treatment: percent of left ventricular area or of area-at-risk, 24 hours of reperfusion
Protocol: Thrombotic occlusion was induced by electrical injury to a coronary artery in dogs. […] Buccal mucosa bleeding times, PT, and aPTT were measured as indices of bleeding risk. After 24 hours of reperfusion, infarct size was determined by Evan's blue and triphenyltetrazolium chloride double staining. This protocol is illustrated in FIG. 7.

[6] = Pharmacokinetic study in rabbits, single IV bolus (serum ADPase and ATPase activities); format: in vivo, rabbit
Protocol: Pharmacokinetic studies of apyrase agent (sol CD39L3 R67G T69R) were conducted in rabbits where a single bolus was injected intravenously. At various time points (10 min to 24 h after injection), rabbits were bled by cardiac puncture and serum was prepared. Serum samples were examined for both ADPase and ATPase activities.

[7] = system: pigs, coronary injury with stenting; details: pig, in vivo
[8] = system: F344 rats, lung graft; assay: Airway administration of apyrase agent after rat lung graft (Example 10); format: in vivo; details: for PaO2: saline about 200; for neutrophil accumulation in lung graft airways: saline control 12×10^2
Protocol: F344 rat lung grafts were flushed and cold preserved in Apyrase agent solution (0.2 mg/L) and engrafted into syngeneic F344 recipients.
At 5 minutes post-reperfusion 1 ml apyrase agent solution (1 mg/kg) (N=6) or an equivalent volume of saline carrier was administered to the trachea at approximately 5 minutes post-reperfusion (N=7). In additional group of lung graft recipients that were treated with apyrase agent intratracheally, apyrase agent was also administered intravenously at 7 minutes post-reperfusion at 0.66 mg/kg (N=9). Lung graft oxygenation, airway cellularity and airway granulocyte numbers were measured 4 hours post-reperfusion. We noted no gross pulmonary hematomas in any treatment groups.

B1: sol CD39L3 R67G T69R (protein)
chain: EVLPPGLKYGIVLDAGSSGTRVYVYQWPAEKENNTGVVSQTFKCSVKGSGISSYGNNPQDVPRAFEECMQKVKGQVPSHLHGSTPIHLGATAGMRLLRLQNETAANEVLESIQSYFKSQPFDFRGAQIISGQEEGVYGWITANYLMGNFLEKNLWHMWVHPHGVETTGALDLGGASTQISFVAGEKMDLNTSDIMQVSLYGYVYTLYTHSFQCYGRNEAEKKFLAMLLQNSPTKNHLTNPCYPRDYSISFTMGHVFDSLCTVDQRPESYNPNDVITFEGTGDPSLCKEKVASIFDFKACHDQETCSFDGVYQPKIKGPFVAFAGFYYTASALNLSGSFSLDTFNSSTWNFCSQNWSQLPLLLPKFDEVYARSYCFSANYIYHLFVNGYKFTEETWPQIHFEKEVGNSSIAWSLGYMLSLTNQIPAESPLIRLPIEPPV
modifications: glycosylated; synthetically constructed apyrase
- alloimmune responses in lung allograft recipients (PaO2, ISHLT vascular rejection score) [1]: effective at suppressing alloimmune responses
- PT [2]: Neither PT nor aPTT were changed significantly
- aPTT [2]: Neither PT nor aPTT were changed significantly
- blood pressure [2]: Neither blood pressure nor heart rate changed significantly
- heart rate [2]: Neither blood pressure nor heart rate changed significantly
- Neurological deficits, median (interquartile range 25th to 75th), modified Bederson score ([3]; 4 h after MCA occlusion): 3
- Neurological deficits, median (interquartile range 25th to 75th), modified Bederson score ([3]; 4 h after MCA occlusion, listed as Apyrase agent): 3 (2-3)
- Neurological deficits, median (interquartile range 25th to 75th), modified Bederson score ([3]; 8 h after MCA occlusion): improved
- Neurological deficits, median (interquartile range 25th to 75th), modified Bederson score ([3]; 8 h after MCA occlusion, listed as Apyrase agent): 2 (2-3)*^
- infarct volume, percentage of the total volume of the ipsilateral hemisphere (mean±SD) ([3]; 24 h after MCA occlusion, aspirin 1.25 mg/kg gastrically once a day from 3 days prior, apyrase 0.75 mg/kg IV at 2 h): 17.89±2.35%
- Neurological deficits, median (interquartile range 25th to 75th), modified Bederson score ([3]; 24 h after MCA occlusion): significantly less severe than the control group
- Neurological deficits, median (interquartile range 25th to 75th), modified Bederson score ([3]; 24 h after MCA occlusion, listed as Apyrase agent): 1.5 (1-2)*
- extracellular hemoglobin content in brain homogenates (hemorrhagic transformation, Drabkin's reagents) ([3]; 24 h after ischemic injury): 0.89±0.08
- brain edema (brain swelling) ([3]; 24 h after ischemic injury, aspirin 1.25 mg/kg, apyrase 0.75 mg/kg IV at 2 h): 6.70±0.93%
- hemorrhage volume in the striatum ([4]; 0.375 mg/kg IV at 3 h after MCAO (30 min before reperfusion), sacrifice at 8 h): 4.8±2.0 mm^3
- neurological function ([4]; 0.375 mg/kg, 4.5 hour after MCAO): significantly improved neurological function
- buccal mucosa bleeding time ([5]; dog, in vivo): no detectable change
- reocclusion ([5]; dogs, apyrase agent at 1 mg/kg): completely prevented reocclusion
- decrease of infarct area compared to clopidogrel treatment ([5]; dogs, high dose (1 mg/kg IV)): 90%
- decrease of infarct area compared to clopidogrel treatment ([5]; dogs, low dose (0.25 mg/kg IV)): 80%
- half life in the circulation [6]: approximately 24 h
- blood loss from a standardized incision of the abdominal wall [7]: not increased
- PaO2 ([8]; IT 1 mg/kg and IV 0.66 mg/kg, 4 hours post-reperfusion): ~320 mm Hg
- reduction of neutrophils in the airway ([8]; airway administration, 4 hours post-reperfusion): over 50%
- neutrophil accumulation in lung graft airways ([8]; airway alone): 5×10^2 neutrophils
- neutrophil accumulation in lung graft airways ([8]; airway and IV): 3×10^2 neutrophils
- PaO2 ([8]; intratracheally (IT) 1 mg/kg, 4 hours post-reperfusion): about 300 mm Hg

Reference: patent US8535662B2, “Apyrase therapy for bleeding conditions” (Apt Therapeutics, Inc., priority 2010, dated 2013)
